Test results taken from patent publication US20180155451A1 (published 2018).

T1: FcgRIIb (human, UniProt P31994 43-217)
T1 construct: extracellular domain; also called FcγRIIb; not shown: His tag attached to the C terminus
T1 sequence (looked up): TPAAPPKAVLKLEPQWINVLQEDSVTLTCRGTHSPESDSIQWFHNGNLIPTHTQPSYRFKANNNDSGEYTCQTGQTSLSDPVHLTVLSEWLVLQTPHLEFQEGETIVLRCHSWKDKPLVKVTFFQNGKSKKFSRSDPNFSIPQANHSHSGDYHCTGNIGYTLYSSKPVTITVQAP


Tests used:
[1] = biological target: T2, FcγRIa extracellular domain with C-terminal His tag (human, UniProt P12314 16-292); experiment: SPR Biacore, relative FcγRIa binding vs GpH7-A5/GpH7-B3/GpL16-k0
T2 construct: extracellular domain; also called FcgRI; CD64; not shown: His tag at the C terminus
T2 sequence (P12314 16-292): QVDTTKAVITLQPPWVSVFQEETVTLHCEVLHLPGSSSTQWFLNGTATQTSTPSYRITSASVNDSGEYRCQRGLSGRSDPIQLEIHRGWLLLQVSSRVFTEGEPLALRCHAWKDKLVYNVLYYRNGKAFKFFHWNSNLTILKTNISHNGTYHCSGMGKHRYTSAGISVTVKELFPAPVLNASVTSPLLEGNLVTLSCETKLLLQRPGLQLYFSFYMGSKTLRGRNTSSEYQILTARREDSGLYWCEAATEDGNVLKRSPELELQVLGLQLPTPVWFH

[2] = biological target: T1, FcgRIIb; experiment: SPR (Biacore); KD of H240-Kn061/H240-Hl071/L73-k0 divided by KD of the variant
Experimental: (§1) The antibodies were assessed for the binding to each FcgR. […] The resultant value was defined as relative KD, and used as an assessment indicator.
(§2) Analysis of interaction between obj ective antibody and the FcγR was carried out using Biacore T100 (GE Healthcare), Biacore T200, Biacore A100, and Biacore 4000. HBS-EP+ (GE Healthcare) was used as the running buffer, and the measurement temperature was set to 25° C. Chips produced by immobilizing the antigen peptide by the amine coupling method to a Series S sensor Chip CM5 (GE Healthcare), chips produced by allowing preliminarily biotinylated antigen peptides to interact with and immobilize onto a Series S Sensor Chip SA (certified) (GE Healthcare), chips produced by immobilizing Protein L (ACTIGEN, BioVision) to Series S Sencor Chip CM5 (GE Healthcare), or chips produced by immobilizing Protein A/G (Thermo Scientific) to Series S Sencor Chip CM5 (GE Healthcare) were used. Antibodies of interest were captured onto these chips, and allowed to interact to each FcγR diluted with running buffer.

[3] = biological target: T3, FcgRIIIa F (human, UniProt P08637 17-208); experiment: as above
T3 construct: extracellular domain; also called FcγRIIIa F; 3aF; not shown: His tag attached to the C terminus
T3 sequence (P08637 17-208): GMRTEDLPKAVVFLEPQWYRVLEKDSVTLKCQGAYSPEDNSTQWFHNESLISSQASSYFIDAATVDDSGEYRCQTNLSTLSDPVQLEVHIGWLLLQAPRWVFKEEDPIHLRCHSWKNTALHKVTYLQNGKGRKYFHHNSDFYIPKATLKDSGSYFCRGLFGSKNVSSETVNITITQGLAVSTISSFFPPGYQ
Experimental: as §1, §2

[4] = biological target: T4, FcgRIIIa V (human, UniProt P08637 17-208); experiment: as above
T4 construct: extracellular domain; also called FcγRIIIa V; not shown: His tag attached to the C terminus
T4 sequence (P08637 17-208 F176V limits assumed): as the sequence (P08637 17-208) above, with F160V counted along it
Experimental: as §1, §2

| Binder | He/Con_1a [1] | Relative KD [2] | Relative KD [3] | Relative KD [4] |
| --- | --- | --- | --- | --- |
| GpH7-A5/GpH7-B3 variant Q295_18N/GpL16-k0 (antibody, human IgG1, kappa, mutation in one H chain only; also called He Ab Q295_18N; Q295N) heavy 1: not shown heavy 2: not shown light: DIVMTQSPLSLPVTPGEPASISCQASESLVHSNRNTYLHWYLQKPGQSPQLLIYKVSNRFSGVPDRFSGSGSGTDFTLKISRVEAEDVGVYYCSQNTHVPPTFGQGTKVEIERTVAAPSVFIFPPSDEQLKSGTASVVCLLNNFYPREAKVQWKVDNALQSGNSQESVTEQDSKDSTYSLSSTLTLSKADYEKHKVYACEVTHQGLSSPVTKSFNRGEC | 102 % of HeCon Ab (=100) | – | – | – |
| GpH7-A5/GpH7-B3 variant S239_01G/GpL16-k0 (antibody, human IgG1, kappa, mutation in one H chain only; also called He Ab S239_01G; S239G) heavy 1: not shown heavy 2: not shown light: DIVMTQSPLSLPVTPGEPASISCQASESLVHSNRNTYLHWYLQKPGQSPQLLIYKVSNRFSGVPDRFSGSGSGTDFTLKISRVEAEDVGVYYCSQNTHVPPTFGQGTKVEIERTVAAPSVFIFPPSDEQLKSGTASVVCLLNNFYPREAKVQWKVDNALQSGNSQESVTEQDSKDSTYSLSSTLTLSKADYEKHKVYACEVTHQGLSSPVTKSFNRGEC | 101 % of HeCon Ab (=100) | – | – | – |
| H240-Kn061 (W236Y)/H240-Hl071/L73-k0 (antibody, human IgG1, kappa) heavy 1: QDQLVQSGAEVKKPGASVKVSCKASGFNIKDTYIQWVRQAPGQGLEWMGRIDPLRKQTKYREKFEGRVTITADTSTNTAYMELSSLRSEDTAVYYCVRSGREFDYWGQGTLVTVSSASTKGPSVFPLAPSSKSTSGGTAALGCLVKDYFPEPVTVSWNSGALTSGVHTFPAVLQSSGLYSLSSVVTVPSSSLGTQTYICNVNHKPSNTKVDKKVEPKSCDKTHTCPPCPAPEYYYGPSVFLFPPKPKDTLMISRTPEVTCVVVDVSDEDPEVKFNWYVDGVEVHNAKTKPREEQYNATYRVVSVLTVLHQDWLNGKEYKCKVSNKALPAPIEKTISKAKGQPREPQVCTLPPSRDELTKNQVSLWCLVKGFYPSDIAVEWESNGQPENNYKTTPPVLDSDGSFFLYSKLTVDKSRWQQGNVFSCSVMHEALHNHYTQKSLSLSP heavy 2: QDQLVQSGAEVKKPGASVKVSCKASGFNIKDTYIQWVRQAPGQGLEWMGRIDPLRKQTKYREKFEGRVTITADTSTNTAYMELSSLRSEDTAVYYCVRSGREFDYWGQGTLVTVSSASTKGPSVFPLAPSSKSTSGGTAALGCLVKDYFPEPVTVSWNSGALTSGVHTFPAVLQSSGLYSLSSVVTVPSSSLGTQTYICNVNHKPSNTKVDKKVEPKSCDKTHTCPPCPAPELLGGPSVFLFPPKPKDTLMISRTPEVTCVVVDVSHEDPEVKFNWYVDGVEVHNAKTKPREEQYNSTYRVVSVLTVLHQDWLNGKEYKCKVSNDALPMPIEETISKAKGQPREPQVYTLPPSRCELTKNQVSLSCAVKGFYPSDIAVEWESNGQPENNYKTTPPVLDSDGSFFLVSKLTVDKSRWQQGNVFSCSVMHEALHNHYTQKSLSLSP light: DIQMTQSPSSLSASVGDRVTITCRASQDIHKYIAWYQQKPGQAPRLLIQYTSTLQPGVPSRFSGSGSGTDYTFTISSLQPEDIATYYCLQYEQLRTFGGGTKVEIKRTVAAPSVFIFPPSDEQLKSGTASVVCLLNNFYPREAKVQWKVDNALQSGNSQESVTEQDSKDSTYSLSSTLTLSKADYEKHKVYACEVTHQGLSSPVTKSFNRGEC | – | 0.8 | 0.8 | 1.2 |
| H240-Kn061 (Y234A)/H240-Hl071/L73-k0 (antibody, human IgG1, kappa) heavy 1: QDQLVQSGAEVKKPGASVKVSCKASGFNIKDTYIQWVRQAPGQGLEWMGRIDPLRKQTKYREKFEGRVTITADTSTNTAYMELSSLRSEDTAVYYCVRSGREFDYWGQGTLVTVSSASTKGPSVFPLAPSSKSTSGGTAALGCLVKDYFPEPVTVSWNSGALTSGVHTFPAVLQSSGLYSLSSVVTVPSSSLGTQTYICNVNHKPSNTKVDKKVEPKSCDKTHTCPPCPAPEAYWGPSVFLFPPKPKDTLMISRTPEVTCVVVDVSDEDPEVKFNWYVDGVEVHNAKTKPREEQYNATYRVVSVLTVLHQDWLNGKEYKCKVSNKALPAPIEKTISKAKGQPREPQVCTLPPSRDELTKNQVSLWCLVKGFYPSDIAVEWESNGQPENNYKTTPPVLDSDGSFFLYSKLTVDKSRWQQGNVFSCSVMHEALHNHYTQKSLSLSP heavy 2: QDQLVQSGAEVKKPGASVKVSCKASGFNIKDTYIQWVRQAPGQGLEWMGRIDPLRKQTKYREKFEGRVTITADTSTNTAYMELSSLRSEDTAVYYCVRSGREFDYWGQGTLVTVSSASTKGPSVFPLAPSSKSTSGGTAALGCLVKDYFPEPVTVSWNSGALTSGVHTFPAVLQSSGLYSLSSVVTVPSSSLGTQTYICNVNHKPSNTKVDKKVEPKSCDKTHTCPPCPAPELLGGPSVFLFPPKPKDTLMISRTPEVTCVVVDVSHEDPEVKFNWYVDGVEVHNAKTKPREEQYNSTYRVVSVLTVLHQDWLNGKEYKCKVSNDALPMPIEETISKAKGQPREPQVYTLPPSRCELTKNQVSLSCAVKGFYPSDIAVEWESNGQPENNYKTTPPVLDSDGSFFLVSKLTVDKSRWQQGNVFSCSVMHEALHNHYTQKSLSLSP light: DIQMTQSPSSLSASVGDRVTITCRASQDIHKYIAWYQQKPGQAPRLLIQYTSTLQPGVPSRFSGSGSGTDYTFTISSLQPEDIATYYCLQYEQLRTFGGGTKVEIKRTVAAPSVFIFPPSDEQLKSGTASVVCLLNNFYPREAKVQWKVDNALQSGNSQESVTEQDSKDSTYSLSSTLTLSKADYEKHKVYACEVTHQGLSSPVTKSFNRGEC | – | 1.2 | 0.8 | 0.9 |
| H240-Kn061 (Y234G)/H240-Hl071/L73-k0 (antibody, human IgG1, kappa) heavy 1: QDQLVQSGAEVKKPGASVKVSCKASGFNIKDTYIQWVRQAPGQGLEWMGRIDPLRKQTKYREKFEGRVTITADTSTNTAYMELSSLRSEDTAVYYCVRSGREFDYWGQGTLVTVSSASTKGPSVFPLAPSSKSTSGGTAALGCLVKDYFPEPVTVSWNSGALTSGVHTFPAVLQSSGLYSLSSVVTVPSSSLGTQTYICNVNHKPSNTKVDKKVEPKSCDKTHTCPPCPAPEGYWGPSVFLFPPKPKDTLMISRTPEVTCVVVDVSDEDPEVKFNWYVDGVEVHNAKTKPREEQYNATYRVVSVLTVLHQDWLNGKEYKCKVSNKALPAPIEKTISKAKGQPREPQVCTLPPSRDELTKNQVSLWCLVKGFYPSDIAVEWESNGQPENNYKTTPPVLDSDGSFFLYSKLTVDKSRWQQGNVFSCSVMHEALHNHYTQKSLSLSP heavy 2: QDQLVQSGAEVKKPGASVKVSCKASGFNIKDTYIQWVRQAPGQGLEWMGRIDPLRKQTKYREKFEGRVTITADTSTNTAYMELSSLRSEDTAVYYCVRSGREFDYWGQGTLVTVSSASTKGPSVFPLAPSSKSTSGGTAALGCLVKDYFPEPVTVSWNSGALTSGVHTFPAVLQSSGLYSLSSVVTVPSSSLGTQTYICNVNHKPSNTKVDKKVEPKSCDKTHTCPPCPAPELLGGPSVFLFPPKPKDTLMISRTPEVTCVVVDVSHEDPEVKFNWYVDGVEVHNAKTKPREEQYNSTYRVVSVLTVLHQDWLNGKEYKCKVSNDALPMPIEETISKAKGQPREPQVYTLPPSRCELTKNQVSLSCAVKGFYPSDIAVEWESNGQPENNYKTTPPVLDSDGSFFLVSKLTVDKSRWQQGNVFSCSVMHEALHNHYTQKSLSLSP light: DIQMTQSPSSLSASVGDRVTITCRASQDIHKYIAWYQQKPGQAPRLLIQYTSTLQPGVPSRFSGSGSGTDYTFTISSLQPEDIATYYCLQYEQLRTFGGGTKVEIKRTVAAPSVFIFPPSDEQLKSGTASVVCLLNNFYPREAKVQWKVDNALQSGNSQESVTEQDSKDSTYSLSSTLTLSKADYEKHKVYACEVTHQGLSSPVTKSFNRGEC | – | 0.9 | 0.8 | 0.9 |
